Results: US20240301052A1 (LANOVA MEDICINES DEVELOPMENT, published 2024)

Biological target: T1, human SLC34A2 (human, UniProt O95436 1-690)
T1 construct: whole, on cells; also called human solute carrier 34 A2; NaPi2b
T1 sequence (looked up): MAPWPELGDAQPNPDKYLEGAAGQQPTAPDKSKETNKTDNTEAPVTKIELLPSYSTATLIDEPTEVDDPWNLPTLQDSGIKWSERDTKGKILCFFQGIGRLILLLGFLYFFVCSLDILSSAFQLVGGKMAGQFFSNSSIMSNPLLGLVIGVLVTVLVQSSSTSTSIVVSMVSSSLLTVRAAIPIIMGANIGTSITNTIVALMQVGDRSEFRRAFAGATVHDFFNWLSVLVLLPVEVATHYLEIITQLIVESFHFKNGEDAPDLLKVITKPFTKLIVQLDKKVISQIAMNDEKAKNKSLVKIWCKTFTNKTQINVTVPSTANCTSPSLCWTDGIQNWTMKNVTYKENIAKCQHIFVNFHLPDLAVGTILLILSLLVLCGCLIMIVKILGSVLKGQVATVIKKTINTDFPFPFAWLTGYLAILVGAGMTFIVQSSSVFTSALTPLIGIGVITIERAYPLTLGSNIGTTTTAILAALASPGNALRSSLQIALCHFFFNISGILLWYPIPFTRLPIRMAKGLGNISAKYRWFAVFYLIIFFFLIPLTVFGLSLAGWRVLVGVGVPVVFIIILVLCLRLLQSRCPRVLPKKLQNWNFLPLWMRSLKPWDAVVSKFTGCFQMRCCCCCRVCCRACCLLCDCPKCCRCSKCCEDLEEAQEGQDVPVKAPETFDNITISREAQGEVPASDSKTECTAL
Experiment: FACS, OVCAR3 cells

B1: 63A11D5B4.p1.z3 hIgG1 (antibody, V domains shown)
VH: QVQLVQSGAEVKKPGASVKVSCKASGYTFITYNMHWVRQAPGQGLEWMGAIYPGSGDTSYNQKFKGRVTMTRDTSTSTVYMELSSLRSEDTAVYYCASSTIITTGAVDYWGQGTLVTVSS
VL: DIQMTQSPSSLSTSVGDRVTITCKASQDVGTAVAWYQQKPGQSPKLLIYWTSTRHTGVPDRFSGSGSGTDFTLIIRSLQPEDVATYFCQQYSRIPLTFGGGTKVEIK
notes: humanized hIgG1
EC50: 17.9 nM | Top (MFI): 28600 MFI

B2: 63A11D5B4.p1.z16 hIgG1 (antibody, V domains shown)
VH: QVQLQQSGAEVVKPGASVKMSCKTSGYTFITYNMHWVKQAPGQGREWIGAIYPGSGDTSYNQKFKGRATLTADKSTSTAYMELSSLRSEDTAVYYCSISTIITTGAVDYWGQGTSVTVSS
VL: DIVMTQSPSSLSTSVGDRVTITCKASQDVGTAVAWYQQKPGQSPKLLIYWTSTRHTGVPDRFTGSGSGTDFTLIIRSLQPEDVATYFCQQYSRIPLTFGSGTKVEIK
notes: humanized hIgG1
EC50: 11.4 nM | Top (MFI): 29500 MFI

B3: 63A11D5B4.p1.z13 hIgG1 (antibody, V domains shown)
VH: QVQLQQSGAEVVKPGASVKMSCKTSGYTFITYNMHWVKQAPGQGREWIGAIYPGSGDTSYNQKFKGRATLTADKSTSTAYMELSSLRSEDTAVYYCSISTIITTGAVDYWGQGTSVTVSS
VL: DIQMTQSPSSLSASVGDRVTITCKASQDVGTAVAWYQQKPGKVPKLLIYWTSTRHTGVPSRFSGSGSGTDFTLTISSLQPEDVATYYCQQYSRIPLTFGGGTKVEIK
notes: humanized hIgG1
EC50: 16.4 nM | Top (MFI): 32600 MFI

B4: 63A11D5B4.p1.z10 hIgG1 (antibody, V domains shown)
VH: QVQLVQSGAEVVKPGASVKMSCKTSGYTFITYNMHWVRQAPGQGLEWIGAIYPGSGDTSYNQKFKGRVTLTADKSTSTAYMELSSLRSEDTAVYYCSISTIITTGAVDYWGQGTLVTVSS
VL: DIQMTQSPSSLSTSVGDRVTITCKASQDVGTAVAWYQQKPGKSPKLLIYWTSTRHTGVPSRFSGSGSGTDFTLIISSLQPEDVATYYCQQYSRIPLTFGGGTKVEIK
notes: humanized hIgG1
EC50: 12.3 nM | Top (MFI): 29800 MFI

B5: 63A11D5B4.p1.z12 hIgG1 (antibody, V domains shown)
VH: QVQLVQSGAEVVKPGASVKMSCKTSGYTFITYNMHWVRQAPGQGLEWIGAIYPGSGDTSYNQKFKGRVTLTADKSTSTAYMELSSLRSEDTAVYYCSISTIITTGAVDYWGQGTLVTVSS
VL: DIVMTQSPSSLSTSVGDRVTITCKASQDVGTAVAWYQQKPGQSPKLLIYWTSTRHTGVPDRFTGSGSGTDFTLIIRSLQPEDVATYFCQQYSRIPLTFGSGTKVEIK
notes: humanized hIgG1
EC50: 11.7 nM | Top (MFI): 31700 MFI

B6: 63A11D5B4.p1.z8 hIgG1 (antibody, V domains shown)
VH: QVQLVQSGAEVKKPGASVKVSCKTSGYTFITYNMHWVRQAPGQGLEWIGAIYPGSGDTSYNQKFKGRVTMTADTSTSTVYMELSSLRSEDTAVYYCSISTIITTGAVDYWGQGTLVTVSS
VL: DIVMTQSPSSLSTSVGDRVTITCKASQDVGTAVAWYQQKPGQSPKLLIYWTSTRHTGVPDRFTGSGSGTDFTLIIRSLQPEDVATYFCQQYSRIPLTFGSGTKVEIK
notes: humanized hIgG1
EC50: 14.2 nM | Top (MFI): 27900 MFI

B7: 63A11D5B4.p1.z7 hIgG1 (antibody, V domains shown)
VH: QVQLVQSGAEVKKPGASVKVSCKTSGYTFITYNMHWVRQAPGQGLEWIGAIYPGSGDTSYNQKFKGRVTMTADTSTSTVYMELSSLRSEDTAVYYCSISTIITTGAVDYWGQGTLVTVSS
VL: DIQMTQSPSSLSTSVGDRVTITCKASQDVGTAVAWYQQKPGQSPKLLIYWTSTRHTGVPDRFSGSGSGTDFTLIIRSLQPEDVATYFCQQYSRIPLTFGGGTKVEIK
notes: humanized hIgG1
EC50: 61.1 nM | Top (MFI): 41000 MFI

B8: 63A11D5B4.p1.z14 hIgG1 (antibody, V domains shown)
VH: QVQLQQSGAEVVKPGASVKMSCKTSGYTFITYNMHWVKQAPGQGREWIGAIYPGSGDTSYNQKFKGRATLTADKSTSTAYMELSSLRSEDTAVYYCSISTIITTGAVDYWGQGTSVTVSS
VL: DIQMTQSPSSLSTSVGDRVTITCKASQDVGTAVAWYQQKPGKSPKLLIYWTSTRHTGVPSRFSGSGSGTDFTLIISSLQPEDVATYYCQQYSRIPLTFGGGTKVEIK
notes: humanized hIgG1
EC50: 16.1 nM | Top (MFI): 32600 MFI

B9: 63A11D5B4.p1.z11 hIgG1 (antibody, V domains shown)
VH: QVQLVQSGAEVVKPGASVKMSCKTSGYTFITYNMHWVRQAPGQGLEWIGAIYPGSGDTSYNQKFKGRVTLTADKSTSTAYMELSSLRSEDTAVYYCSISTIITTGAVDYWGQGTLVTVSS
VL: DIQMTQSPSSLSTSVGDRVTITCKASQDVGTAVAWYQQKPGQSPKLLIYWTSTRHTGVPDRFSGSGSGTDFTLIIRSLQPEDVATYFCQQYSRIPLTFGGGTKVEIK
notes: humanized hIgG1
EC50: 10.3 nM | Top (MFI): 27700 MFI

B10: 63A11D5B4.p1.z4 hIgG1 (antibody, V domains shown)
VH: QVQLVQSGAEVKKPGASVKVSCKASGYTFITYNMHWVRQAPGQGLEWMGAIYPGSGDTSYNQKFKGRVTMTRDTSTSTVYMELSSLRSEDTAVYYCASSTIITTGAVDYWGQGTLVTVSS
VL: DIVMTQSPSSLSTSVGDRVTITCKASQDVGTAVAWYQQKPGQSPKLLIYWTSTRHTGVPDRFTGSGSGTDFTLIIRSLQPEDVATYFCQQYSRIPLTFGSGTKVEIK
notes: humanized hIgG1
EC50: 18.1 nM | Top (MFI): 29000 MFI
